Series [1] has as its system HeLa Kyoto. Kind of series: solubility in G1/S (NP-40 vs SDS abundance) (log2 ratio); higher = more soluble. Particulars: cell cycle stage: G1/S.
Series [2] has as its system HeLa Kyoto. Kind of series: melting temperature (median over replicates), in situ; higher = more thermally stable.
Series [3] concerns HeLa Kyoto. Nature of the series: solubility change mitosis vs G1/S (difference of NP-40 vs SDS log2 ratios) (log2 ratio difference); higher = more soluble in mitosis.
The test system of series [4] is HeLa Kyoto. Kind of series: thermal stability score vs G1/S (z-score of summed log2 fold changes over temperatures); higher = more thermally stable than in G1/S.
The mark [5] stands for this setting: cell cycle stage: early G1 (4.5 h after nocodazole release).
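Wherever melting temperature (median over replicates), in situ is given: HeLa Kyoto cells synchronized by double thymidine or nocodazole block, proteins quantified by TMT10plex mass spectrometry, three independent biological replicates.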
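Wherever solubility change mitosis vs G1/S (difference of NP-40 vs SDS log2 ratios) is given: synchronized HeLa Kyoto cells (double thymidine block for G1/S, nocodazole release for mitosis), protein amounts in NP-40 versus SDS lysates quantified by mass spectrometry, three biological replicates.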
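Wherever solubility in G1/S (NP-40 vs SDS abundance) is given: HeLa Kyoto cells arrested at G1/S by double thymidine block, proteins quantified by TMT10plex mass spectrometry in mild NP-40 versus SDS extracts, three biological replicates.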
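Wherever thermal stability score vs G1/S (z-score of summed log2 fold changes over temperatures) is given: synchronized HeLa Kyoto cells, proteins quantified by TMT10plex mass spectrometry, three biological replicates, mitosis taken 0.5 h after nocodazole release, G1/S directly after double thymidine block.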

Turning to “MSSILPFTPPVVKRLLGWKKSAGGSGGAGGGEQNGQEEKWCEKAVKSLVKKLKKTGRLDELEKAITTQNCNTKCVTIPSTCSEIWGLSTPNTIDQWDTTGLYSFSEQTRSLDGRLQVSHRKGLPHVIYCRLWRWPDLHSHHELKAIENCEYAFNLKKDEVCVNPYHYQRVETPVLPPVLVPRHTEILTELPPLDDYTHSIPENTNFPAGIEPQSNYIPETPPPGYISEDGETSDQQLNQSMDTGSPAELSPTTLSPVNHSLDLQPVTYSEPAFWCSIAYYELNQRVGETFHASQPSLTVDGFTDPSNSERFCLGLLSNVNRNATVEMTRRHIGRGVRLYYIGGEVFAECLSDSAIFVQSPNCNQRYGWHPATVCKIPPGCNLKIFNNQEFAALLAQSVNQGFEAVYQLTRMCTIRMSFVKGWGAEYRRQTVTSTPCWIELHLNGPLQWLDKVLTQMGSPSVRCSSMS [SMAD2]”, the “solubility in G1/S (log2)” value in series [1] was -0.0287. The melting temperature in series [2] (cell cycle stage: G1/S) was 50.5 °C; in series [2] (cell cycle stage: mitosis) it was 49.9 °C. Moreover, in series [3], the “solubility change mitosis (log2)” value is -0.177. Also, the thermal stability score came out at 0.527 in series [4] (setting [5]) and 1.37 in series [4] (cell cycle stage: mitosis).

For the substance “MAGAAGLTAEVSWKVLERRARTKRSGSVYEPLKSINLPRPDNETLWDKLDHYYRIVKSTLLLYQSPTTGLFPTKTCGGDQKAKIQDSLYCAAGAWALALAYRRIDDDKGRTHELEHSAIKCMRGILYCYMRQADKVQQFKQDPRPTTCLHSVFNVHTGDELLSYEEYGHLQINAVSLYLLYLVEMISSGLQIIYNTDEVSFIQNLVFCVERVYRVPDFGVWERGSKYNNGSTELHSSSVGLAKAALEAINGFNLFGNQGCSWSVIFVDLDAHNRNRQTLCSLLPRESRSHNTDAALLPCISYPAFALDDEVLFSQTLDKVVRKLKGKYGFKRFLRDGYRTSLEDPNRCYYKPAEIKLFDGIECEFPIFFLYMMIDGVFRGNPKQVQEYQDLLTPVLHHTTEGYPVVPKYYYVPADFVEYEKNNPGSQKRFPSNCGRDGKLFLWGQALYIIAKLLADELISPKDIDPVQRYVPLKDQRNVSMRFSNQGPLENDLVVHVALIAESQRLQVFLNTYGIQTQTPQQVEPIQIWPQQELVKAYLQLGINEKLGLSGRPDRPIGCLGTSKIYRILGKTVVCYPIIFDLSDFYMSQDVFLLIDDIKNALQFIKQYWKMHGRPLFLVLIREDNIRGSRFNPILDMLAALKKGIIGGVKVHVDRLQTLISGAVVEQLDFLRISDTEELPEFKSFEELEPPKHSKVKRQSSTPSAPELGQQPDVNISEWKDKPTHEILQKLNDCSCLASQAILLGILLKREGPNFITKEGTVSDHIERVYRRAGSQKLWLAVRYGAAFTQKFSSSIAPHITTFLVHGKQVTLGAFGHEEEVISNPLSPRVIQNIIYYKCNTHDEREAVIQQELVIHIGWIISNNPELFSGMLKIRIGWIIHAMEYELQIRGGDKPALDLYQLSPSEVKQLLLDILQPQQNGRCWLNRRQIDGSLNRTPTGFYDRVWQILERTPNGIIVAGKHLPQQPTLSDMTMYEMNFSLLVEDTLGNIDQPQYRQIVVELLMVVSIVLERNPELEFQDKVDLDRLVKEAFNEFQKDQSRLKEIEKQDDMTSFYNTPPLGKRGTCSYLTKAVMNLLLEGEVKPNNDDPCLIS [PHKB]”, the “solubility in G1/S (log2)” value in series [1] was -0.047. For the same substance, the melting temperature in series [2] (cell cycle stage: G1/S) turned out to be 50.2 °C; in series [2] (cell cycle stage: mitosis), 49.3 °C. In addition, the “solubility change mitosis (log2)” value in series [3] was -0.191. For the same substance, the thermal stability score was -0.245 in series [4] (setting [5]) and 0.284 in series [4] (cell cycle stage: mitosis).

Take “MGVQGLWKLLECSGRQVSPEALEGKILAVDISIWLNQALKGVRDRHGNSIENPHLLTLFHRLCKLLFFRIRPIFVFDGDAPLLKKQTLVKRRQRKDLASSDSRKTTEKLLKTFLKRQAIKTAFRSKRDEALPSLTQVRRENDLYVLPPLQEEEKHSSEEEDEKEWQERMNQKQALQEEFFHNPQAIDIESEDFSSLPPEVKHEILTDMKEFTKRRRTLFEAMPEESDDFSQYQLKGLLKKNYLNQHIEHVQKEMNQQHSGHIRRQYEDEGGFLKEVESRRVVSEDTSHYILIKGIQAKTVAEVDSESLPSSSKMHGMSFDVKSSPCEKLKTEKEPDATPPSPRTLLAMQAALLGSSSEEELESENRRQARGRNAPAAVDEGSISPRTLSAIKRALDDDEDVKVCAGDDVQTGGPGAEEMRINSSTENSDEGLKVRDGKGIPFTATLASSSVNSAEEHVASTNEGREPTDSVPKEQMSLVHVGTEAFPISDESMIKDRKDRLPLESAVVRHSDAPGLPNGRELTPASPTCTNSVSKNETHAEVLEQQNELCPYESKFDSSLLSSDDETKCKPNSASEVIGPVSLQETSSIVSVPSEAVDNVENVVSFNAKEHENFLETIQEQQTTESAGQDLISIPKAVEPMEIDSEESESDGSFIEVQSVISDEELQAEFPETSKPPSEQGEEELVGTREGEAPAESESLLRDNSERDDVDGEPQEAEKDAEDSLHEWQDINLEELETLESNLLAQQNSLKAQKQQQERIAATVTGQMFLESQELLRLFGIPYIQAPMEAEAQCAILDLTDQTSGTITDDSDIWLFGARHVYRNFFNKNKFVEYYQYVDFHNQLGLDRNKLINLAYLLGSDYTEGIPTVGCVTAMEILNEFPGHGLEPLLKFSEWWHEAQKNPKIRPNPHDTKVKKKLRTLQLTPGFPNPAVAEAYLKPVVDDSKGSFLWGKPDLDKIREFCQRYFGWNRTKTDESLFPVLKQLDAQQTQLRIDSFFRLAQQEKEDAKRIKSQRLNRAVTCMLRKEKEAAASEIEAVSVAMEKEFELLDKAKGKTQKRGITNTLEESSSLKRKRLSDSKGKNTCGGFLGETCLSESSDGSSSEDAESSSLMNVQRRTAAKEPKTSASDSQNSVKEAPVKNGGATTSSSSDSDDDGGKEKMVLVTARSVFGKKRRKLRRARGRKRKT [ERCC5]”: in series [1], the “solubility in G1/S (log2)” value is -0.112. Further, the melting temperature in series [2] (cell cycle stage: G1/S) came out at 50.7 °C; in series [2] (cell cycle stage: mitosis) it was 51.4 °C. In addition, the “solubility change mitosis (log2)” value in series [3] is -0.0796. Further, the thermal stability score in series [4] (setting [5]) was 0.19; in series [4] (cell cycle stage: mitosis) it was 1.18.

Regarding “MAAAMVPGRSESWERGEPGRPALYFCGSIRGGREDRTLYERIVSRLRRFGTVLTEHVAAAELGARGEEAAGGDRLIHEQDLEWLQQADVVVAEVTQPSLGVGYELGRAVAFNKRILCLFRPQSGRVLSAMIRGAADGSRFQVWDYEEGEVEALLDRYFEADPPGQVAASPDPTT [DNPH1]”, in series [1], the “solubility in G1/S (log2)” value is 0.392. Besides, the melting temperature in series [2] (cell cycle stage: G1/S) and in series [2] (cell cycle stage: mitosis) was 55.3 °C throughout. For the same substance, the “solubility change mitosis (log2)” value in series [3] was found to be 0.00918. The results for the thermal stability score in series [4] (setting [5]) and in series [4] (cell cycle stage: mitosis) were -1.99 and -2.01, respectively.

With TRPM7, the “solubility in G1/S (log2)” value in series [1] is -0.312. Further, the melting temperature in series [2] (cell cycle stage: G1/S) is 51.6 °C; in series [2] (cell cycle stage: mitosis), 51.4 °C. In series [3], the “solubility change mitosis (log2)” value is -0.0119. The values for the thermal stability score in series [4] (setting [5]) and in series [4] (cell cycle stage: mitosis) were 0.936 and 0.742, respectively.

Regarding “MAVLLLLLRALRRGPGPGPRPLWGPGPAWSPGFPARPGRGRPYMASRPPGDLAEAGGRALQSLQLRLLTPTFEGINGLLLKQHLVQNPVRLWQLLGGTFYFNTSRLKQKNKEKDKSKGKAPEEDEEERRRRERDDQMYRERLRTLLVIAVVMSLLNALSTSGGSISWNDFVHEMLAKGEVQRVQVVPESDVVEVYLHPGAVVFGRPRLALMYRMQVANIDKFEEKLRAAEDELNIEAKDRIPVSYKRTGFFGNALYSVGMTAVGLAILWYVFRLAGMTGREGGFSAFNQLKMARFTIVDGKMGKGVSFKDVAGMHEAKLEVREFVDYLKSPERFLQLGAKVPKGALLLGPPGCGKTLLAKAVATEAQVPFLAMAGPEFVEVIGGLGAARVRSLFKEARARAPCIVYIDEIDAVGKKRSTTMSGFSNTEEEQTLNQLLVEMDGMGTTDHVIVLASTNRADILDGALMRPGRLDRHVFIDLPTLQERREIFEQHLKSLKLTQSSTFYSQRLAELTPGFSGADIANICNEAALHAAREGHTSVHTLNFEYAVERVLAGTAKKSKILSKEEQKVVAFHESGHALVGWMLEHTEAVMKVSITPRTNAALGFAQMLPRDQHLFTKEQLFERMCMALGGRASEALSFNEVTSGAQDDLRKVTRIAYSMVKQFGMAPGIGPISFPEAQEGLMGIGRRPFSQGLQQMMDHEARLLVAKAYRHTEKVLQDNLDKLQALANALLEKEVINYEDIEALIGPPPHGPKKMIAPQRWIDAQREKQDLGEEETEETQQPPLGGEEPTWPK [SPG7]”, the “solubility in G1/S (log2)” value in series [1] worked out at 0.0611. Further, the values for the melting temperature in series [2] (cell cycle stage: G1/S) and in series [2] (cell cycle stage: mitosis) were 51.2 °C and 51.9 °C, respectively. In addition, the “solubility change mitosis (log2)” value in series [3] is -0.102. Further, the thermal stability score stood at 2.94 in series [4] (setting [5]) and 1.55 in series [4] (cell cycle stage: mitosis).

These data come from the supplement of paper PMC5998384.
